15 molecules from patent US20200283478A1 (Genentech, published 2020) can be followed below.

Bridge positions count the residues as written; N and C are the ends. Square brackets hold non-standard residues; d marks the D form.

For one test, the target named is T1, His-tagged PCSK9Δhelix (human, UniProt Q8NBP7 31-152; Q8NBP7 168-692).
T1 construct: Human PCSK9 M1-Q692 with an engineered TEV site, cut by TEV protease; new N-terminus of the catalytic domain is S-A168; also called His-PCSK9Δhelix; not shown: His tag
In words: TR-FRET competition (PCSK9Δhelix/Ab20 assay); competitor Ab20.

In test [1] the target is T2, His-tagged, full-length PCSK9 (human, UniProt Q8NBP7 31-692).
T2 construct: secreted PCSK9 is autocatalytically cleaved into prodomain and catalytic domain + CRD (from S153), which stay associated; also called His-PCSK9; proprotein convertase subtilisin/kexin type 9; not shown: His tag
In words: TR-FRET competition (PCSK9/EGF(A) assay); competitor EGF(A)-Fc.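 Also: proximity signal from anti-His APC on PCSK9 paired with anti-Fc europium on the Fc ligand, read as normalized TR-FRET ratio across compound dilutions.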

T2 sequence (Q8NBP7 31-692 limits assumed): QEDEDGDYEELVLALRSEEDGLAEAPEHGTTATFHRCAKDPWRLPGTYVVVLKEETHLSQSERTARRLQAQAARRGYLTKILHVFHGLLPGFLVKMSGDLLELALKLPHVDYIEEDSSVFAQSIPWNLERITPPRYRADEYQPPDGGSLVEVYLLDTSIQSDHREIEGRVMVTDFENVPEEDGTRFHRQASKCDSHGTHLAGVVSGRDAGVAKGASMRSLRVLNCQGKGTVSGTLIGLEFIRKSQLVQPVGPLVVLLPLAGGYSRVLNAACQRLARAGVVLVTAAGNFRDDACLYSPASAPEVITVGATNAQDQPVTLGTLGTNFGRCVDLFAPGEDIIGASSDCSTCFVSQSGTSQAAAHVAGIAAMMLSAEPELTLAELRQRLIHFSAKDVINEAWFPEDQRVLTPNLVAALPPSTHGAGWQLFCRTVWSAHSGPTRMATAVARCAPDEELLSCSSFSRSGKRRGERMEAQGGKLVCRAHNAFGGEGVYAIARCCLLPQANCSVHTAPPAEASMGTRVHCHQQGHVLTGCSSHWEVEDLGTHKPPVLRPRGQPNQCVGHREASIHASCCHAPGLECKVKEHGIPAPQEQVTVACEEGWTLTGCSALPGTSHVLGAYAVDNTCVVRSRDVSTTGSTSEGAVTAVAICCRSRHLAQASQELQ
T1 sequence (Q8NBP7 31-152, stated change not applied, chain 1 of 2): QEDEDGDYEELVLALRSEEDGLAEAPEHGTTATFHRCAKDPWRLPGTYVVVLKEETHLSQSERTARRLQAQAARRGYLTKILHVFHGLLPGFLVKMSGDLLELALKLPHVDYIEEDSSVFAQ
T1 sequence (Q8NBP7 other isoform, or with tags, fused parts or gaps mutant, chain 2 of 2): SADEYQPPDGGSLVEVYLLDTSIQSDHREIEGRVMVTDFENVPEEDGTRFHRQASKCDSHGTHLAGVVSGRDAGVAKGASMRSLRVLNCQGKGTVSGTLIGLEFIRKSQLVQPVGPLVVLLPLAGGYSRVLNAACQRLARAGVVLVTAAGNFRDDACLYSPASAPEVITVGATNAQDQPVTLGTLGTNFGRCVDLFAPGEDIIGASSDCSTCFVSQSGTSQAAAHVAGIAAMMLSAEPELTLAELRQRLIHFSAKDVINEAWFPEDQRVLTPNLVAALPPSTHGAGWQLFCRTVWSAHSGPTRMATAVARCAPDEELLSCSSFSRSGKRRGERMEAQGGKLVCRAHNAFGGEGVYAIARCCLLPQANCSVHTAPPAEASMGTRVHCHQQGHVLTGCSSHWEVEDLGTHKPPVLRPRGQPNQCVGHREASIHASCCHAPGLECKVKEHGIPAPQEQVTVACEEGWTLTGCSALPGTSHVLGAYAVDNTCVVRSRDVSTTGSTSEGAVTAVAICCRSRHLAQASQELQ
Description for His-tagged PCSK9Δhelix: Signal generation in the PCSK9 binding assays was dependent upon the binding interaction to bring into close proximity the His-tag on the PCSK9 and the Fc-tag on the ligand. Anti-His-APC was bound to the His-tag, and anti-Fc-europium was bound to the Fc-tag.
Compounds were solubilized and dilutions were prepared in DMSO. […] The plate was centrifuged to mix the well contents and allowed to incubate for 30 min. […] The normalized TR-FRET ratios were plotted as a function of the compound concentrations, and the IC₅₀ values were determined using a 4-parameter logistic regression.

B1: Compound 99 (Ac-CRLPWNLQRIGLpC-NH2) (peptide)
peptide: Ac-CRLPWNLQRIGL[dP]C-NH2
modifications: disulfide 1-14
SMILES: CC[C@H](C)[C@@H]1NC(=O)[C@H](CCCNC(=N)N)NC(=O)[C@H](CCC(N)=O)NC(=O)[C@H](CC(C)C)NC(=O)[C@H](CC(N)=O)NC(=O)[C@H](Cc2c[nH]c3ccccc23)NC(=O)[C@@H]2CCCN2C(=O)[C@H](CC(C)C)NC(=O)[C@H](CCCNC(=N)N)NC(=O)[C@@H](NC(C)=O)CSSC[C@@H](C(N)=O)NC(=O)[C@H]2CCCN2C(=O)[C@H](CC(C)C)NC(=O)CNC1=O
As for B1, the results for the half-inhibitory concentration (IC50) (with His-tagged PCSK9Δhelix; in test [1]) were 1.3 µM and greater than 50 µM, respectively.

B2: Compound 68 (Ac-CRLPWNLQRIGLAC-NH2) (peptide)
peptide: Ac-CRLPWNLQRIGLAC-NH2
modifications: disulfide 1-14
SMILES: CC[C@H](C)[C@@H]1NC(=O)[C@H](CCCNC(=N)N)NC(=O)[C@H](CCC(N)=O)NC(=O)[C@H](CC(C)C)NC(=O)[C@H](CC(N)=O)NC(=O)[C@H](Cc2c[nH]c3ccccc23)NC(=O)[C@@H]2CCCN2C(=O)[C@H](CC(C)C)NC(=O)[C@H](CCCNC(=N)N)NC(=O)[C@@H](NC(C)=O)CSSC[C@@H](C(N)=O)NC(=O)[C@H](C)NC(=O)[C@H](CC(C)C)NC(=O)CNC1=O
Regarding B2, the IC50 with His-tagged PCSK9Δhelix was 0.939 µM; in test [1], greater than 50 µM.

B3: Compound 77 (Ac-CRLAWNLQRIGLPC-NH2) (peptide)
peptide: Ac-CRLAWNLQRIGLPC-NH2
modifications: disulfide 1-14
SMILES: CC[C@H](C)[C@@H]1NC(=O)[C@H](CCCNC(=N)N)NC(=O)[C@H](CCC(N)=O)NC(=O)[C@H](CC(C)C)NC(=O)[C@H](CC(N)=O)NC(=O)[C@H](Cc2c[nH]c3ccccc23)NC(=O)[C@H](C)NC(=O)[C@H](CC(C)C)NC(=O)[C@H](CCCNC(=N)N)NC(=O)[C@@H](NC(C)=O)CSSC[C@@H](C(N)=O)NC(=O)[C@@H]2CCCN2C(=O)[C@H](CC(C)C)NC(=O)CNC1=O
For B3, the IC50 with His-tagged PCSK9Δhelix was 6.02 µM; in test [1], greater than 50 µM.

B4: Compound 80 (Ac-CRLPWNLQRIGLGC-NH2) (peptide)
peptide: Ac-CRLPWNLQRIGLGC-NH2
modifications: disulfide 1-14
SMILES: CC[C@H](C)[C@@H]1NC(=O)[C@H](CCCNC(=N)N)NC(=O)[C@H](CCC(N)=O)NC(=O)[C@H](CC(C)C)NC(=O)[C@H](CC(N)=O)NC(=O)[C@H](Cc2c[nH]c3ccccc23)NC(=O)[C@@H]2CCCN2C(=O)[C@H](CC(C)C)NC(=O)[C@H](CCCNC(=N)N)NC(=O)[C@@H](NC(C)=O)CSSC[C@@H](C(N)=O)NC(=O)CNC(=O)[C@H](CC(C)C)NC(=O)CNC1=O
On to B4, for which the IC50 with His-tagged PCSK9Δhelix is 0.65 µM; in test [1], greater than 50 µM.

B5: Compound 71 (Ac-CRLPWNLQRAGLPC-NH2) (peptide)
peptide: Ac-CRLPWNLQRAGLPC-NH2
modifications: disulfide 1-14
SMILES: CC(=O)N[C@H]1CSSC[C@@H](C(N)=O)NC(=O)[C@@H]2CCCN2C(=O)[C@H](CC(C)C)NC(=O)CNC(=O)[C@H](C)NC(=O)[C@H](CCCNC(=N)N)NC(=O)[C@H](CCC(N)=O)NC(=O)[C@H](CC(C)C)NC(=O)[C@H](CC(N)=O)NC(=O)[C@H](Cc2c[nH]c3ccccc23)NC(=O)[C@@H]2CCCN2C(=O)[C@H](CC(C)C)NC(=O)[C@H](CCCNC(=N)N)NC1=O
Take B5: the half-maximal inhibitory concentration (IC50) with His-tagged PCSK9Δhelix was 49.5 µM; in test [1] it was greater than 50 µM.

B6: Compound 69 (Ac-CRLPWNLQRIGAPC-NH2) (peptide)
peptide: Ac-CRLPWNLQRIGAPC-NH2
modifications: disulfide 1-14
SMILES: CC[C@H](C)[C@@H]1NC(=O)[C@H](CCCNC(=N)N)NC(=O)[C@H](CCC(N)=O)NC(=O)[C@H](CC(C)C)NC(=O)[C@H](CC(N)=O)NC(=O)[C@H](Cc2c[nH]c3ccccc23)NC(=O)[C@@H]2CCCN2C(=O)[C@H](CC(C)C)NC(=O)[C@H](CCCNC(=N)N)NC(=O)[C@@H](NC(C)=O)CSSC[C@@H](C(N)=O)NC(=O)[C@@H]2CCCN2C(=O)[C@H](C)NC(=O)CNC1=O
With B6, the IC50 is 6.64 µM with His-tagged PCSK9Δhelix and greater than 50 µM in test [1].

B7: Compound 81 (Ac-CRLPWNLQRIGGGC-NH2) (peptide)
peptide: Ac-CRLPWNLQRIGGGC-NH2
modifications: disulfide 1-14
SMILES: CC[C@H](C)[C@@H]1NC(=O)[C@H](CCCNC(=N)N)NC(=O)[C@H](CCC(N)=O)NC(=O)[C@H](CC(C)C)NC(=O)[C@H](CC(N)=O)NC(=O)[C@H](Cc2c[nH]c3ccccc23)NC(=O)[C@@H]2CCCN2C(=O)[C@H](CC(C)C)NC(=O)[C@H](CCCNC(=N)N)NC(=O)[C@@H](NC(C)=O)CSSC[C@@H](C(N)=O)NC(=O)CNC(=O)CNC(=O)CNC1=O
Regarding B7, the values for the concentration for half-maximal inhibition (IC50) (with His-tagged PCSK9Δhelix; in test [1]) were 28.8 µM and greater than 50 µM, respectively.

B8: Compound 79 (Ac-CALPWNLQRIGLPC-NH2) (peptide)
peptide: Ac-CALPWNLQRIGLPC-NH2
modifications: disulfide 1-14
SMILES: CC[C@H](C)[C@@H]1NC(=O)[C@H](CCCNC(=N)N)NC(=O)[C@H](CCC(N)=O)NC(=O)[C@H](CC(C)C)NC(=O)[C@H](CC(N)=O)NC(=O)[C@H](Cc2c[nH]c3ccccc23)NC(=O)[C@@H]2CCCN2C(=O)[C@H](CC(C)C)NC(=O)[C@H](C)NC(=O)[C@@H](NC(C)=O)CSSC[C@@H](C(N)=O)NC(=O)[C@@H]2CCCN2C(=O)[C@H](CC(C)C)NC(=O)CNC1=O
Consider B8, for which the figures for the half-maximal inhibitory concentration (IC50) (with His-tagged PCSK9Δhelix; in test [1]) were 1.53 µM and greater than 50 µM, respectively.

B9: Compound 75 (Ac-CRLPWALQRIGLPC-NH2) (peptide)
peptide: Ac-CRLPWALQRIGLPC-NH2
modifications: disulfide 1-14
SMILES: CC[C@H](C)[C@@H]1NC(=O)[C@H](CCCNC(=N)N)NC(=O)[C@H](CCC(N)=O)NC(=O)[C@H](CC(C)C)NC(=O)[C@H](C)NC(=O)[C@H](Cc2c[nH]c3ccccc23)NC(=O)[C@@H]2CCCN2C(=O)[C@H](CC(C)C)NC(=O)[C@H](CCCNC(=N)N)NC(=O)[C@@H](NC(C)=O)CSSC[C@@H](C(N)=O)NC(=O)[C@@H]2CCCN2C(=O)[C@H](CC(C)C)NC(=O)CNC1=O
With B9, the IC50 with His-tagged PCSK9Δhelix is 49.5 µM; in test [1], greater than 50 µM.

B10: Compound 72 (Ac-CRLPWNLQAIGLPC-NH2) (peptide)
peptide: Ac-CRLPWNLQAIGLPC-NH2
modifications: disulfide 1-14
SMILES: CC[C@H](C)[C@@H]1NC(=O)[C@H](C)NC(=O)[C@H](CCC(N)=O)NC(=O)[C@H](CC(C)C)NC(=O)[C@H](CC(N)=O)NC(=O)[C@H](Cc2c[nH]c3ccccc23)NC(=O)[C@@H]2CCCN2C(=O)[C@H](CC(C)C)NC(=O)[C@H](CCCNC(=N)N)NC(=O)[C@@H](NC(C)=O)CSSC[C@@H](C(N)=O)NC(=O)[C@@H]2CCCN2C(=O)[C@H](CC(C)C)NC(=O)CNC1=O
Regarding B10, the figures for the half-inhibitory concentration (IC50) (with His-tagged PCSK9Δhelix; in test [1]) were 39.6 µM and greater than 50 µM, respectively.

B11: Compound 73 (Ac-CRLPWNLARIGLPC-NH2) (peptide)
peptide: Ac-CRLPWNLARIGLPC-NH2
modifications: disulfide 1-14
SMILES: CC[C@H](C)[C@@H]1NC(=O)[C@H](CCCNC(=N)N)NC(=O)[C@H](C)NC(=O)[C@H](CC(C)C)NC(=O)[C@H](CC(N)=O)NC(=O)[C@H](Cc2c[nH]c3ccccc23)NC(=O)[C@@H]2CCCN2C(=O)[C@H](CC(C)C)NC(=O)[C@H](CCCNC(=N)N)NC(=O)[C@@H](NC(C)=O)CSSC[C@@H](C(N)=O)NC(=O)[C@@H]2CCCN2C(=O)[C@H](CC(C)C)NC(=O)CNC1=O
Regarding B11, the figures for the IC50 (in the test with His-tagged PCSK9Δhelix; in test [1]) were 0.915 µM and greater than 50 µM, respectively.

B12: Compound 78 (Ac-CRAPWNLQRIGLPC-NH2) (peptide)
peptide: Ac-CRAPWNLQRIGLPC-NH2
modifications: disulfide 1-14
SMILES: CC[C@H](C)[C@@H]1NC(=O)[C@H](CCCNC(=N)N)NC(=O)[C@H](CCC(N)=O)NC(=O)[C@H](CC(C)C)NC(=O)[C@H](CC(N)=O)NC(=O)[C@H](Cc2c[nH]c3ccccc23)NC(=O)[C@@H]2CCCN2C(=O)[C@H](C)NC(=O)[C@H](CCCNC(=N)N)NC(=O)[C@@H](NC(C)=O)CSSC[C@@H](C(N)=O)NC(=O)[C@@H]2CCCN2C(=O)[C@H](CC(C)C)NC(=O)CNC1=O
As to B12, the results for the IC50 (with His-tagged PCSK9Δhelix; in test [1]) were 5.56 µM and greater than 50 µM, respectively.

B13: Compound 70 (Ac-CRLPWNLQRIALPC-NH2) (peptide)
peptide: Ac-CRLPWNLQRIALPC-NH2
modifications: disulfide 1-14
SMILES: CC[C@H](C)[C@@H]1NC(=O)[C@H](CCCNC(=N)N)NC(=O)[C@H](CCC(N)=O)NC(=O)[C@H](CC(C)C)NC(=O)[C@H](CC(N)=O)NC(=O)[C@H](Cc2c[nH]c3ccccc23)NC(=O)[C@@H]2CCCN2C(=O)[C@H](CC(C)C)NC(=O)[C@H](CCCNC(=N)N)NC(=O)[C@@H](NC(C)=O)CSSC[C@@H](C(N)=O)NC(=O)[C@@H]2CCCN2C(=O)[C@H](CC(C)C)NC(=O)[C@H](C)NC1=O
Regarding B13, the concentration for half-maximal inhibition (IC50) with His-tagged PCSK9Δhelix is 7.26 µM; in test [1] it was greater than 50 µM.

B14: Compound 74 (Ac-CRLPWNAQRIGLPC-NH2) (peptide)
peptide: Ac-CRLPWNAQRIGLPC-NH2
modifications: disulfide 1-14
SMILES: CC[C@H](C)[C@@H]1NC(=O)[C@H](CCCNC(=N)N)NC(=O)[C@H](CCC(N)=O)NC(=O)[C@H](C)NC(=O)[C@H](CC(N)=O)NC(=O)[C@H](Cc2c[nH]c3ccccc23)NC(=O)[C@@H]2CCCN2C(=O)[C@H](CC(C)C)NC(=O)[C@H](CCCNC(=N)N)NC(=O)[C@@H](NC(C)=O)CSSC[C@@H](C(N)=O)NC(=O)[C@@H]2CCCN2C(=O)[C@H](CC(C)C)NC(=O)CNC1=O
With B14, the IC50 with His-tagged PCSK9Δhelix was 49.5 µM; in test [1] it was greater than 50 µM.

B15: Compound 76 (Ac-CRLPANLQRIGLPC-NH2) (peptide)
peptide: Ac-CRLPANLQRIGLPC-NH2
modifications: disulfide 1-14
SMILES: CC[C@H](C)[C@@H]1NC(=O)[C@H](CCCNC(=N)N)NC(=O)[C@H](CCC(N)=O)NC(=O)[C@H](CC(C)C)NC(=O)[C@H](CC(N)=O)NC(=O)[C@H](C)NC(=O)[C@@H]2CCCN2C(=O)[C@H](CC(C)C)NC(=O)[C@H](CCCNC(=N)N)NC(=O)[C@@H](NC(C)=O)CSSC[C@@H](C(N)=O)NC(=O)[C@@H]2CCCN2C(=O)[C@H](CC(C)C)NC(=O)CNC1=O
Turning to B15, the IC50 in the test with His-tagged PCSK9Δhelix was 49.5 µM; in test [1], greater than 50 µM.
